Assay [1] has as its target T1, PSIIm-S/27 (monomeric photosystem II-PsbS/Psb27 complex) (Nicotiana tabacum, UniProt P69556+P69686).
T1 construct: gene psbA; native PSII core monomer from stromal lamellae/grana margins; His6 tag at 5' end of psbE; beta-DDM; PsbS and Psb27 quasi-stoichiometric; with Photosystem II CP47 reaction center protein; Photosystem II CP43 reaction center protein; Cytochrome b559 subunit alpha; Cytochrome b559 subunit beta; Photosystem II 22 kDa protein, chloroplastic; Photosystem II repair protein PSB27, chloroplastic
Briefly: flash-induced chlorophyll fluorescence decay. Particulars: 10 µM DCMU, 15 °C (also 20 °C), pH 6.5; QB site, blocks electron transfer from QA. Format: biochemical.

For assay [2], the target named is photosystem II monomer core complex (PSIIm), His6-tagged on PsbE (N. tabacum | N. tabacum (endogenous in tobacco thylakoids)) (UniProt P69384).

Sequence of PsbS (Q9SMB4 67-274): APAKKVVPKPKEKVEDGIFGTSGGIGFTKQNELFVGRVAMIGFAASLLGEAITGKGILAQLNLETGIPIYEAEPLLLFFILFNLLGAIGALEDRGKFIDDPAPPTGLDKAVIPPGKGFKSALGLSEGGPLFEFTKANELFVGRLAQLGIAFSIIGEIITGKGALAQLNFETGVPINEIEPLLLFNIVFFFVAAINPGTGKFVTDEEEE

For `CN(C)C(=O)Nc1ccc(Cl)c(Cl)c1` [DCMU], the “flash-induced chlorophyll fluorescence decay” value in assay [1] was “presence of PsbS and/or Psb27 does not interfere with the DCMU binding”.
In assay [2], Psb27 (natural protein) returned a decay of flash-induced chlorophyll fluorescence yield (QA^•− oxidation) at 15 °C, PSIIm-S/27 against PSIIm of 10 fold.
On to “PsbS (from UniProt Q9SMB4 67-274) (natural protein)”, for which, in assay [2], the decay of flash-induced chlorophyll fluorescence yield (QA^•− oxidation) at 15 °C, PSIIm-S/27 against PSIIm turned out to be 10 fold.
